Measurements taken from patent publication US20170037089A1 (IMMATICS BIOTECHNOLOGIES, published 2017).

Target: T1, HLA-A*02 (peptide-receptive MHC class I monomer after UV-ligand exchange) (human)
T1 construct: also called HLA-A*02:01; HLA-A*0201
Test: UV-ligand exchange, b2m ELISA; peptide exchange yield grade (>=10% +; >=20% ++; >=50 +++; >=75% ++++)
Description: Candidate peptides for T cell based therapies according to the present invention were further tested for their MHC binding capacity (affinity). The individual peptide-MHC complexes were produced by UV-ligand exchange, where a UV-sensitive peptide is cleaved upon UV-irradiation, and exchanged with the peptide of interest as analyzed. Only peptide candidates that can effectively bind and stabilize the peptide-receptive MHC molecules prevent dissociation of the MHC complexes. To determine the yield of the exchange reaction, an ELISA was performed based on the detection of the light chain (β2m) of stabilized MHC complexes. The assay was performed as generally described in Rodenko et al. (Rodenko et al., 2006).
96 well MAXISorp plates (NUNC) were coated over night with 2 ug/ml streptavidin in PBS at room temperature, washed 4× and blocked for 1 h at 37° C. in 2% BSA containing blocking buffer. Refolded HLA-A*02:01/MLA-001 monomers served as standards, covering the range of 15-500 ng/ml. Peptide-MHC monomers of the UV-exchange reaction were diluted 100 fold in blocking buffer. Samples were incubated for 1 h at 37° C., washed four times, incubated with 2 ug/ml HRP conjugated anti-32m for 1 h at 37° C., washed again and detected with TMB solution that is stopped with […]. Absorption was measured at 450 nm. Candidate peptides that show a high exchange yield (preferably higher than 50%, most preferred higher than 75%) are generally preferred for a generation and production of antibodies or fragments thereof, and/or T cell receptors or fragments thereof, as they show sufficient avidity to the MHC molecules and prevent dissociation of the MHC complexes.

Row | Binder | peptide exchange yield [%]
1 | ALGDLVQSV [ALGDLVQSV (SEQ ID No. 52)] | 50 to 75
2 | SLLSHQVLL [SLLSHQVLL (SEQ ID No. 20)] | 50 to 75
3 | ALLTFVWKL (also called TRPM8-002) [ALLTFVWKL (SEQ ID No. 4)] | ≥ 75
4 | KIFSRLIYI (also called TRPM8-003) [KIFSRLIYI (SEQ ID No. 5)] | 50 to 75
5 | HLLEDIAHV (also called NEFH-001) [HLLEDIAHV (SEQ ID No. 3)] | ≥ 75
6 | AMAPNHAVV [AMAPNHAVV (SEQ ID No. 13)] | 50 to 75
7 | KMDEASAQLLA [KMDEASAQLLA (SEQ ID No. 15)] | 50 to 75
8 | GMLNEAEGKAIKL [GMLNEAEGKAIKL (SEQ ID No. 9)] | 50 to 75
9 | SMLGEEIQL (also called GREB-001) [SMLGEEIQL (SEQ ID No. 2)] | ≥ 75
10 | SLFHPEDTGQV (also called KLK3-004) [SLFHPEDTGQV (SEQ ID No. 49)] | 50 to 75
11 | SLYDSIAFI [SLYDSIAFI (SEQ ID No. 22)] | ≥ 75
12 | KMDEASAQL [KMDEASAQL (SEQ ID No. 16)] | 50 to 75
13 | ALLESRVNL (also called PDE11-001) [ALLESRVNL (SEQ ID No. 6)] | ≥ 75
14 | KMDEASAQLL [KMDEASAQLL (SEQ ID No. 14)] | 20 to 50

More lines, now with the values ahead:

Row | peptide exchange yield [%] | Binder
15 | 20 to 50 | YLEEECPAT [YLEEECPAT (SEQ ID No. 11)]
16 | ≥ 75 | VTAQIGIVAV (also called OR51E2-001) [VTAQIGIVAV (SEQ ID No. 1)]
17 | 50 to 75 | YLLKDKGEYTL [YLLKDKGEYTL (SEQ ID No. 53)]
18 | 20 to 50 | TLLQVVGVVSV [TLLQVVGVVSV (SEQ ID No. 7)]
19 | 50 to 75 | TLWRGPVVV [TLWRGPVVV (SEQ ID No. 10)]
20 | 20 to 50 | YLNDSLRHV [YLNDSLRHV (SEQ ID No. 21)]
